From PMC1769499 come the findings set out here.

Test [1] addresses recombinant Lhcb1 protein (LHCII apoprotein reconstituted in vitro with chlorophylls and xanthophylls). As to the kind of experiment: sucrose density gradient ultracentrifugation; in vitro trimerization of Lhcb1 reconstituted with a mix of all xanthophylls (L,V,N) plus Chl a and b; bound to Ni2+ column, washed with 0.1 mg/ml PG, 0.06% β-DM, 0.2 M NaCl, 20 mM phosphate pH 7.5, 10 mM imidazole; eluted, trimers separated from monomers on a sucrose gradient.

Test [2] has the same target. Briefly: sucrose density gradient ultracentrifugation; in vitro trimerization of Lhcb1 reconstituted with lutein as only xanthophyll (100% lutein) plus Chl a and b; bound to Ni2+ column, washed with 0.1 mg/ml PG, 0.06% β-DM, 0.2 M NaCl, 20 mM phosphate pH 7.5, 10 mM imidazole; eluted, trimers separated from monomers on a sucrose gradient.

On to “recombinant Lhcb1 protein (LHCII apoprotein reconstituted in vitro with chlorophylls and xanthophylls) (natural protein)”, for which the stoichiometry N in test [1] and in test [2] was 3 throughout.

As usually defined, the stoichiometry N is the number of molecules, sites or subunits per partner or assembly.
